In patent US20170313781A1 (IMMUNOMEDICS, published 2017):
Read-outs that look alike come from different tables or passages of the source.

T1: human Trop-2 on the surface of human tumor cells (human, UniProt P09758 27-323)
T1 construct: whole, on cells; also called EGP-1; TACSTD2
T1 sequence (looked up): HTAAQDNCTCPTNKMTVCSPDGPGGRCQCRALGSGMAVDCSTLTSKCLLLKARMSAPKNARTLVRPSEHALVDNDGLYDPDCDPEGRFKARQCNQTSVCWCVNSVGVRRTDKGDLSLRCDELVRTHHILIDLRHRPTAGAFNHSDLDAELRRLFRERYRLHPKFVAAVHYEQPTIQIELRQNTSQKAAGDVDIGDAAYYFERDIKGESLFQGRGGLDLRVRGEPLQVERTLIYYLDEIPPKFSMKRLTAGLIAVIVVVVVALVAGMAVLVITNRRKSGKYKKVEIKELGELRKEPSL

B1: humanized RS7 (hRS7) anti-Trop-2 IgG (antibody, INN chains, looked up, V domains shown)
VH: QVQLQQSGSELKKPGASVKVSCKASGYTFTNYGMNWVKQAPGQGLKWMGWINTYTGEPTYTDDFKGRFAFSLDTSVSTAYLQISSLKADDTAVYFCARGGFGSSYWYFDVWGQGSLVTVSS
VL: DIQLTQSPSSLSASVGDRVSITCKASQDVSIAVAWYQQKPGKAPKLLIYSASYRYTGVPDRFSGSGSGTDFTLTISSLQPEDFAVYYCQQHYITPLTFGAGTKVEIK
B2: hRS7-CL2-SN-38 (antibody, INN chains, looked up, V domains shown)
VH: B1 VH
VL: B1 VL
modifications: SN-38 via CL2 linker
B3: murine RS7 anti-Trop-2 monoclonal antibody (antibody, V domains shown)
VH: VKLQESGPELKKPGETVKISCKASGYTFTNYGMNWVKQAPGKGLKWMGWINTYTGEPTYTDDFKGRFAFSLETSATTAYLQINNLKSEDMATYFCARGGFGSSYWYFDVWGQGTTVTVSS
VL: DIQLTQSHKFMSTSVGDRVSITCKASQDVSIAVAWYQQKPGQSPKLLIYSASYRYTGVPDRFTGSGSGTDFTFTISSVQAEDLAVYYCQQHYITPLTFGAGTKLELK

What was measured:
[1] = biological target: human Trop-2 on the surface of human tumor cells (human) (UniProt P09758); test: cell binding on NCI-N87 cells, Bmax compared to RS7
[2] = biological target: human Trop-2 on the surface of human tumor cells (human) (UniProt P09758); test: cell binding on NCI-N87 cells, anti-mouse-HRP, luminescence
[3] = biological target: human Trop-2 on the surface of human tumor cells (human) (UniProt P09758); test: cell binding assay
[4] = biological target: human Trop-2 on the surface of human tumor cells (human) (UniProt P09758); test: cell-based or functional assay
[5] = biological target: recombinant human neonatal receptor (FcRn) (human) (UniProt P55899); test: SPR (BIACORE), FcRn chip
[6] = biological target: rhTrop-2/TACSTD2 (Sino Biological, Inc.) immobilized on a CM5 sensor chip (human) (UniProt P09758); test: SPR (BIACORE), Trop-2 chip
[7] = biological target: recombinant human neonatal receptor (FcRn) (human) (UniProt P55899); test: SPR (BIACORE), low-density FcRn chip, three runs, 400 to 25 nM
[8] = biological target: rhTrop-2/TACSTD2 (Sino Biological, Inc.) immobilized on a CM5 sensor chip (human) (UniProt P09758); test: SPR (BIACORE), low-density recombinant human Trop-2 chip, three runs
[9] = biological target: human Trop-2 on the surface of human tumor cells (human) (UniProt P09758); test: cell-based or functional assay; remark: listed apart in the source
[10] = biological target: recombinant human Trop-2 with a His-tag (Sino Biological, Cat#10428-H09H) (human) (UniProt P09758); test: ELISA on Ni-NTA strips coated with recombinant His-tagged human Trop-2
[11] = biological target: T1, human Trop-2 on the surface of human …; test: cell binding on NCI-N87 cells, anti-mouse-HRP, luminescence

Chain of recombinant human neonatal receptor (FcRn) (human) (P55899 24-297 limits assumed, chain 1 of 2): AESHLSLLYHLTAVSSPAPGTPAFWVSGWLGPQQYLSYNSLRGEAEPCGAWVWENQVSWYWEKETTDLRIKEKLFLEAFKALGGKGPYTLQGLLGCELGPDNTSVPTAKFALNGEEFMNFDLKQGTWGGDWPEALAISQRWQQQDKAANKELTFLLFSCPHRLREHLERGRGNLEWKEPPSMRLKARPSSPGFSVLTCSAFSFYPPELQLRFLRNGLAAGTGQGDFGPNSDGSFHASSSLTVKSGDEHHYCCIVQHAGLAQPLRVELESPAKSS
Chain of recombinant human neonatal receptor (FcRn) (human) (P61769 21-119 limits assumed, chain 2 of 2, further chain): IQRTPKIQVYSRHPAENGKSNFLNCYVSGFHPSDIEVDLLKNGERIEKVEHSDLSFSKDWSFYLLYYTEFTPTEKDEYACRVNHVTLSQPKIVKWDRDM

| Molecule | reduction of Bmax against RS7 [1] | Kd [2] | maximum binding (Bmax) (relative luminescent units) [2] | Kd [3] | Kd [7] | Kd [8] | also measured |
| --- | --- | --- | --- | --- | --- | --- | --- |
| 162-46.2 murine monoclonal antibody against human Trop-2 | 25% | 0.52 nM | 8470 |  |  |  |  |
| MAB650 murine monoclonal antibody against human Trop-2 (R&D Systems) | 50% | 0.49 nM | 6020 |  |  |  |  |
| sacituzumab govitecan (IMMU-132, hRS7-CL2A-SN-38) (antibody) |  |  |  | 1.2 nM | 192 nM | 0.26 nM | ADCC, percent specific lysis of MDA-MB-468 cells (LDH release, E:T 50:1, 33.3 nM) [4]: 8.6%; median fluorescence intensity of anti-rH2AX-AF488 staining (dsDNA breaks), HCC1806 (Trop-2+) cells [4]: 546 MFI; γH2AX induction in BxPC-3 cells, Mean Fluorescence Intensity [4]: 5350 MFI; γH2AX induction in BxPC-3 cells, Percent Positive [4]: 69%; fold decrease in fold change of average binding level (reference not named; the comparison in paragraph 543 is with hRS7) [5]: 2 fold; fold improvement of KD against naked hRS7 [6]: 2 fold |
| B1 |  |  |  |  | 92.4 nM | 0.51 nM | ADCC, percent specific lysis of BxPC-3 cells (PBMC effectors, E:T 100:1, 33.3 nM) [9]: 8.5%; ADCC, percent specific lysis of MDA-MB-468 cells (LDH release, E:T 50:1, 33.3 nM) [9]: 29.8%; Kd [10]: 0.3 nM |
| B2 |  |  |  | 1.2 nM |  |  |  |
| B3 |  |  |  |  |  |  | Kd [11]: 0.57 nM |
